# Experimental data reported in the Immune Epitope Database (IEDB).
# How the values were obtained:
# HLA-A*02:06 = assay: IEDB peptide-MHC binding, purified MHC/competitive/radioactivity; filed as Kd, often an IC50 or EC50 that approximates it; ≥ and ≤ were set here for values at or beyond the usual limits of such assays
# HLA-A*02:02 = assay: as above
# HLA-A*02:03 = assay: as above
# HLA-A*02:01 [1] = assay: IEDB peptide-MHC binding, purified MHC/competitive/fluorescence; ≥ and ≤ were set here for values at or beyond the usual limits of such assays
# HLA-B*58:01 = assay: IEDB peptide-MHC binding, purified MHC/direct/fluorescence; filed as Kd, often an IC50 or EC50 that approximates it; ≥ and ≤ were set here for values at or beyond the usual limits of such assays
# HLA-A*69:01 = assay: as above
# HLA-B*15:01 = assay: as above
# HLA-A*03:01 = assay: as above; conditions: source organism: Vibrio parahaemolyticus
# HLA-B*07:02 = assay: as above; conditions: source organism: Homo sapiens
# HLA-A*02:01 [2] = assay: as above
# [3] = source organism: Vaccinia virus WR
# [4] = source organism: Zaire ebolavirus
# [5] = source organism: Human immunodeficiency virus 1
# [6] = source organism: Vaccinia virus Copenhagen
# [7] = source organism: Sudan ebolavirus
# [8] = source organism: Mammarenavirus brazilense
# [9] = source organism: Mycobacterium tuberculosis
# [10] = source organism: Giardia lamblia ATCC 50803
Sequence,Kd (HLA-A*02:06; [3]) [nM],Kd (HLA-A*02:02; [3]) [nM],Kd (HLA-A*02:03; [3]) [nM],other results
MLDDFSAGA,114,68.4,73.1,
MNAPDDLVL,,,,IC50 (HLA-A*02:01 [1]; [4]): ≥ 162000 nM
NANPDCKTI,,,,Kd (HLA-B*58:01; [5]): 9310 nM; Kd (HLA-A*69:01; [5]): 7640 nM
NASQHPQQV,,,,Kd (HLA-A*69:01; source organism: Salmonella enterica subsp. enterica serovar Typhimurium): 571 nM
NIKISLNEI,1500,1670,31,
NLEELTTVFI,12300,418,6500,
NLFDIPLLT,,,,Kd (HLA-A*02:06; [6]): 1540 nM; Kd (HLA-A*02:02; [6]): 135 nM; Kd (HLA-A*02:03; [6]): 36.3 nM
NLHYWTAQE,,,,IC50 (HLA-A*02:01 [1]; [7]): ≥ 189000 nM
NQDGLICGL,,,,IC50 (HLA-A*02:01 [1]; [4]): 28400 nM
NQRETTVVW,,,,Kd (HLA-B*15:01; source organism: Pseudomonas aeruginosa): 133 nM
QLSDHPMVK,,,,Kd (HLA-A*03:01): 146 nM
QLVKDESIQL,1810,157,130,
RLDGTTLEV,,,,IC50 (HLA-A*02:01 [1]; source organism: Mycobacterium leprae): 35 nM
RLKVFLPNP,,,,IC50 (HLA-A*02:01 [1]; source organism: Variola virus): 9430 nM
RLLKNMKQCT,11900,≥ 46800,3140,
RLVDSIGSW,,,,Kd (HLA-B*58:01; source organism: Influenza A virus (A/swine/IDT/Bakum1832/2000(H1N2))): 128 nM
RMPTDMLKL,678,950,106,
RPASAGAML,,,,Kd (HLA-B*07:02): 34 nM; Kd (HLA-A*69:01; source organism: Homo sapiens): 8380 nM
RSASGGVYL,,,,Kd (HLA-A*02:06; [8]): 13600 nM; Kd (HLA-A*02:02; [8]): 278 nM; Kd (HLA-A*02:03; [8]): 14500 nM
RSLKAFFSW,,,,Kd (HLA-B*58:01; source organism: Mammarenavirus machupoense): 29.4 nM

Sequence,Kd (HLA-A*02:06; [3]) [nM],Kd (HLA-A*02:02; [3]) [nM],Kd (HLA-A*02:03; [3]) [nM],other results
RVLYDEFVTI,6.62,153,178,
SAMVQVHSQ,,,,IC50 (HLA-A*02:01 [1]; [4]): ≥ 609000 nM
SIFVSTMPV,81.9,37.5,6.58,
SLCPTKKLV,11900,3160,2660,
SLVSKHWELT,2680,409,34.6,
SNGLITSTV,,,,IC50 (HLA-A*02:01 [1]; [7]): 60400 nM
SQIFNIISYI,23.5,61.7,181,
SQVNPITLTA,,,,Kd (HLA-A*02:06; source organism: Dengue virus 2 Jamaica/1409/1983): 129 nM
SVKNLILNFL,551,1040,163,
TGVGKTSQV,,,,IC50 (HLA-A*02:01 [1]; source organism: Variola virus): 36100 nM
TIGTIAGGV,1140,298,17.4,
TITTFIPISA,4840,4060,176,
TLFKIDNNT,,,,IC50 (HLA-A*02:01 [1]; [7]): 18700 nM
TLFYCDERDA,19500,271,2150,
TSSDPGTNT,,,,IC50 (HLA-A*02:01 [1]; [4]): ≥ 251000 nM
TTTFITVLT,1090,2460,8590,
TVQEFIFSAL,43.9,80.7,90,
VGYVDDTQF,,,,Kd (HLA-B*15:01; source organism: Homo sapiens): 572 nM; Kd (HLA-B*07:02): 6180 nM; Kd (HLA-B*58:01; source organism: Homo sapiens): 210 nM
VIVPDIKLDA,883,≥ 33500,≥ 21400,
VLPPEINSL,,,,Kd (HLA-A*02:01 [2]; [9]): 71.4 nM

Sequence,Kd (HLA-A*02:06; [3]) [nM],Kd (HLA-A*02:02; [3]) [nM],Kd (HLA-A*02:03; [3]) [nM],other results
VLQQVSNGV,,,,Kd (HLA-A*69:01; [9]): ≥ 20000 nM
VLTSVDIET,13.7,382,11300,
VMPEKRNVVV,≥ 27700,3540,299,
VSTAVAALF,,,,Kd (HLA-B*58:01; source organism: Mycobacterium tuberculosis F11): 32.6 nM
VTLNRIKIA,625,13300,407,
VTPEYIKDL,1760,10400,≥ 78100,
VTSPLTGNNT,5130,1450,2500,
VTYNIKPVIV,358,4920,116,
WLKDSAIMV,2280,191,27.9,
WVMDTLNGIM,129,1330,194,
YASLTTIGTI,83.6,6290,398,
YFLESNFFI,,,,Kd (HLA-A*02:01 [2]; [10]): 0.6 nM; Kd (HLA-A*69:01; [10]): 2.2 nM
YGLVSKFMS,,,,IC50 (HLA-A*02:01 [1]; [3]): 25600 nM
YLGIFKNNDV,285,14.8,16.9,
YLPEVISTIA,17.7,10.9,0.955,
YLSDSDNIKI,906,16.3,109,
YQNEVTPEYI,2.59,2.74,0.209,
YVGDLCGSV,,,,IC50 (HLA-A*02:01 [1]; source organism: Hepatitis C virus genotype 1): ≥ 50000 nM
